Measurements reported in the nanobody polyreactivity screen of Harvey et al. (2022).

Assay: yeast display, Sf9 membrane polyspecificity reagent, FACS + sequencing; frameworks hold sequencing errors
Procedure, shortened: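 Sorting gates, low and high (top ~1%), were placed on anti-HA fluorescence to track expression and on streptavidin fluorescence to track reagent binding. A clone's polyreactivity label is taken from the gate it came out of. The reagent was 10% biotinylated, detergent-solubilized Sf9 membrane, applied for 1 hour at 4 °C to galactose-induced yeast display cells.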

Sequence | polyreactivity (PSR sort gate)
QVQLVESGGGLVQAGGSLRLSCPASGSIFYYYAMGWYRQAPGKERELVAAIRGSGSSTYYADSVKGRFTISRDNAKNTVYLQMNSLKPEDTAVYYCAAYDLLVGLQYDYWGQGTQVTVSS | low polyreactivity
QVQLVESGGGLVQAGGSLRLSCAASGITFKPYGMGWYRQAPGKERELVATISWSGGSTNYADSVKGRFTISRDNAKNTVYLQMNILKPEDTAVYYCAATSYSHTEIRYDYWGQGTQVTVSS | low polyreactivity
QVQLVESGGGLVQAGGSLRLSCAASGSIFYRYAMGWYRQAPGKERELVAAISWGGGRTYYADSVKGRFTISRDNAKNTVYLLMKSLKPEDTAVYYCNAVQSYYTVHRLDYWGQGTQVTVSS | high polyreactivity
QVQLVESGGGLVQAGGSLRLSCAASGSTFDANAMGWSRQAPRKERELVATISDGGSTNYADSVKGRFTISSDNAKNTVYLQMISVKPEDTAVYYCAAVKLFLGLGFEYWGQGTQVTVSS | low polyreactivity
QVQLVESCGGIVQAGGSLRLSCAASGSILRSNSMGTYRQAPGKERELVAAISSRGGSTYYADSVKGRFTISRDNAKNTVYLQMNSLNPEDTAVYYCNKASYTVISYDEYDYWGQVTQVTVSS | high polyreactivity
KVQLVESGGGLVHAGGILRLISAASGSIFTYYYMGWYRQAPGKERELVAAISWNGGTTYYADSVKGRFTISRDNAKNTVYLQMNSLKPEDTAVYYCNKDGSYRYDYWGQGTQVTVSS | low polyreactivity
QVQLVESGGGLVQAGGSLRLSCAASGRIFAVYAMGWYRQAPGKERELVATISSSGSTHYADSVKGRFTISRDNAKNTVYLQMNSLKPEDTAVYYCNAGGSELKLGYDYWGQGTQVTVSS | low polyreactivity
QVQLVESGGGLVQAGGSLRLSCAASGSTFPKYPMGWYRQSPGKERELVASISVTTGSTYYADSVKGRFTISRDNAKHTVYLQMNSLKPEDTAVYYCAKRTYSRKFRGAYNYWGLGTQVTVSS | high polyreactivity
QVQLVESAGGVVQAGGSLRLSCAPSGRTFYPYVMGCYRTAPGKERELVARIRWSGSSTYYADSEKGRFTISRDNAKNTVYLQMNSLKPEDTAVYYCNARPSWYVFGSSVHSGMGYWGQGTQVTVSS | high polyreactivity
QVHLVESGGGLVQAGGSLRLSCAASGFTFRWYAMGGDRQAPGKERALVAAIDSTDITNYADSVKGRFTISRDNAKNTVYLQMNSLKPEDTAVYYCAAELYPALYPFRISGTYGYWGQGTLVTVSS | high polyreactivity
QVQLVESGGGLVQAGGSLRLSCAASGSTFTIYAMGWYRQAPGKEREFVAAIDEDDGSTYYADSVKGRFTISRDNAKKTVYLQMNSLKPEDTAVYYCNADDIWAYAFDYWGQGTQVTVSS | low polyreactivity
QVQLVETGGGLVQAGGSLRLSCAASGSNFLPNAMGWYRQAPGKERELVARISYSGGNTYYADSVKGRFTISRDNAKNTVYLQMNSLKPEDTAVYYCATSHYYNDYTGRRYYYWGQGTQVTVSS | high polyreactivity
QVQLVESGGALVQARGSLRLSSAASGSIFPFYAMPSYRQAPGKERELVAAISDRGGSTYYADSVKGRFTISRDNAKNTVYLQMNSLKPEDTAVYYCAVDGYGWGSSSSWFRSLYDYWGQGTQVTVSS | low polyreactivity
QVQLVESGGGLVQAGGSLRLSCAASGSIFAANTMGWYRQAPGKERELVATISWSSGRTRYADSVKGRFTISRDNAKNTVYLQMNSLKPEDTAVYYCAARYYYSRSRLYYYWGQGTQVTVSS | high polyreactivity
QVQLVESGGGLVQAGGSLRLSCAASGSTSTTYAMGWYRQAPWKERELVAAISWGGTRTYYADSVKGRFTISRDNAKNTVYLQMNSLKPEDTAVYYCNAGRRSSSGHYGYNYWGQGTQVTVSS | high polyreactivity
QVQLVDSGGGLVQAGGRLRLSCAASGSTFIYNAMGWYRQAPGKERELVASISTSGGSTYYADSVKGRFTISRDNAKNTVYLQMNSLKPEDTAVYYCAKRYFFKYGYWGQGTQVTVSS | high polyreactivity
QVQLVESGGGLVQAGGSLRLSCAASGITFSFYALGWYRHAPGKERELVAAISRGGASTYYADSVKGRFTISRDNAKNTVYLQMNSLKPEDSAVYYCAALSVDERYDYWGQGTQVTVSS | low polyreactivity
QVQLVESGGGLVQAGGSLRLSCAASGGIFAANAMGWYRQAPGTERELVAAITSVGSTYADSVKGRFTISRDNAKNTVYLQMNSLKPEDTAVSYCAADTESVIVWYEDDYWGQGTQVTVSS | low polyreactivity
QVQLVESGGGLVQAGGSLRLSCAASGIIFIFYDMGWYRQAPGTERELVAAITNGVDSTYYADSVKGRFTISRDNAKNTVYLQMNSLKPEDTAVYYCNADTVVEWYSPSREYDYWGQGTQVTVSS | low polyreactivity
QVQLEESGGGLVQAGGSLRLSCAASGYIFYEYAMGWYRQAPGKERELVAAISRRGGRTYYADSVKGRFTISRDNAKNTVYLQMHSLKPEDTAVYYCAASVRFGDYEYWGQGTQVTVSS | high polyreactivity
QLQLVESGRGLVQAGGSLRLSCAASGRTFVYYPMGSYRQAPGKERELVASISSVGTTKYADSVKGRFTISRDNAKNTVYLQMNCLKPEDTAVYYCAAVPLSRNIFDSWGQGTQVSVSS | low polyreactivity
QVQLVESGGGLVQAGGSLRISCAASGSTITWYTMGWYRQAPGKERELVATIRKRGGSTYYADSVKGRFTISRDNAKNTVYLQMNSLKPEDTAVYYCNDTRLIYRFNPEEAGSTIPYDYWGQGTQVTVSS | high polyreactivity

Sequence | polyreactivity (PSR sort gate)
QVQLVESGGGLVQAGGSLRLSCAASGFIFGYYAMGWYRQAPGKERELVAPIKYNDDSTYYADSVKARFTISRDNAKNTVYLQMNSLKPEDTAVYYCAASRFWPGNSYYYRYYYWGQGTQVTVSS | low polyreactivity
QVQLVESGGGLFQAGGSLRLSCAASGSTFYAYAIGWYRQAPGKERELVAAITLSGGSTYYADSVKGRFTISRDNAKNTVYLQMNSLKPEDTAVYYCAADQLRCGDYYWGQGTQVTVSS | high polyreactivity
QVQLVESGGGLVQAGGSLRLSCAASGSIFTAYDKGWYRQAPGKVRDLVAAINVSAGTTYYADSVKGRFTISRDNAKNTVYLQMNSLKPEDTAVYYCATDRSPTPYTRENIYDYWGQGTQVTVSS | low polyreactivity
QVHLVESGGGLVQAGGSLRLSCAASGFTIASYDMGWYRQAPGKERELVAAISKGGGRTYYADSVKGRFTISRDNSKNTVYLQMNSLQPEDTAVYYCAAYAPYPRRAYDYWGQGTQVTVSS | low polyreactivity
KVQLVESGGGLVQAGGSLRLSCAASGSIFGRYAMGWYIQAPGKERELVAGISSSGGRTYYADSVKGRFTISRDNAKNTVYLQMNSLKPEDTAVYYCAAVRSSWSYYYWGQGTQVTVSS | high polyreactivity
QVQLVESGGGLVQAGGSLRLSCAASGFTFYFYAMGWYRQAPGKERDLVAAINSGDSTYYADSVKGRFTISSDNEKNTVYLQMNSLKPEDTAVYYCSAAQFIQLRDYWGQGTQVTVSS | high polyreactivity
QVQLVESGGGLVQAGGSLRISCASSGRIFAFYVMGWYRQAPGKERELVAAISIRGTRTYYADSVKGRFTISRDNAKNTVYLQMNSLKPVDTAVYYCNAVTFPHYYDYWGQGPQVTVSS | high polyreactivity
QVQLVESGGGLVQAGGSLRLSCAASGSTFQVYGLGWYRQAPGKERELVAAISRSGGRTYYADSVKGRFTISRDNAKNTVYLQMNSLKPEDTAVYYCAKTYQTTTSKSGYYYWGQGTQVTVSS | high polyreactivity
QVQLVESGGGLVQAGGSLRLSCSASGRIFSRYAMGWYRQAPGKERELVATISSGGGTYYADSVKGRFTISRDNAKNTVYLQMNSLKPEDTAVYYCATRYPRKLRVPYDYWGQGTQVTVSS | high polyreactivity
PVQLVESGGGLVQAGGSLRLSCAASGFIFYLYAMGWYRQAPGKERELVASINVSGASTRYADSVKGRFTISRDNSKNTVYLQMKSLKPEDTAVYYCAAAITELYFEAYYYWGQGTQVTVSS | low polyreactivity
QVQLHESGGGLVLAGGSLRLSCSASGNISVYGSMGLYRQAPGKEREFVATIDPGTNTNYADSVKDRFSISRDNAKHTVYLQMNSLKPEDTAVYYCAVEAGSDWPYRYWGHGTQVTVSS | low polyreactivity
QVQLVESGGGLVQAGGSLRLSCAASGSIFNSNAMGWYRPAPGKERELVAAITGSGGRTYYADSVKGRFTISRDNAKNTVYLKMNSLKPEDTAVYYCNVTRGTIGGYSYWGQGTQVTVSS | high polyreactivity
QVQLVESGGGLVQAGGSLRLSCAASGFTFAYNAMGWYRPAPGKERELVAAISGRGVSTYYADSVKGRFTISRDNAKNTVYLQMNSLKPEDTAVYYCAKRYRYWTTERYDYWGQGTQVTVSS | high polyreactivity
QVQLVESGGGLVQAGGSLRLSCAASGIIFSGNAMGWSRQAPGKERELVAAITLSGGSTYYADSVKGRFTISRDNAKNTVYLQMNSLKPEDTAVYYCNAVYDTKYSLRDIDTEYGSWGQGTQVTVSS | low polyreactivity
QVQLVESGGGLVQAGGSLRLSCAASGYTFNYYAMGWYRQAPGKERELVAAIRSGGSTTYADSVKGRFTISRDNAKNTVYLQMNSLKPEDTAVYYCNADAGYWYRPAYDYWGQGTQVTVSS | low polyreactivity
QVQLVESGGGLVQAGGSLRLSCAASGFTFRKYTMGWYRQAPGKERELVAAISSGFSTNYADSVKGRFTISRDNAKNSVYLQMNSLKPEDTAVYYCAARGGYYQGRYKYGYWGQGTQVTVSS | high polyreactivity
QVHLVQSGGGIVQAGGSLRLSCAASGIIIRRYVMGWYRQAPGKERELVATISSSGGSTYYADSVKGRFTISRDNAKTTVYLQMNSLKPEDTAVYYCAVRYYGSGRYYYTYYSWGQGTQVTVSS | high polyreactivity
QVQLVESGVGLVQAGGSLRLSCAASGRIFTYYAMGWYRQAPGKERELVAVISSVGGTYYADSVKGRFTISRDNAKNTVYLQMNSLKPEDTAVYYCAVGKIWSRRSSTSRFGYWGQGTQVTVSS | high polyreactivity
QVQLQESGGGLVQVGGSQRLSCAASGNIFYNYAMGWYRHAQGKEREFDATINHGTSINYADSVKGRFTISRDNAKNTVYLQMNSLKPEDTAVYYCAARVVRYGYKYYYWGQGTQVTVSS | low polyreactivity
QVQLVESGGGLVQAGGSLRLSCAASGFIFYHYAMGWYRQAPGKERELVAAISRRTGSTYYADSVKGRFTISRDNAKNTDYLQMNSLKPEDTSVYYCAADAYFIYSRYWYDYWGQGTQVTVSS | high polyreactivity
QVQLVESGGGLVQAGGSLRLSCAASGNTFWYYAMGWYRQAPGKERELVAAISWDGGITYYADSVKGRFTISRDNAKNTVFLQMNRLKPEDTAVYYCATLIPRKGSRYYHRGYWGQGTQLTVSS | high polyreactivity
